Laboratory results: PMC11758377 (2026)

Target: H3K4me3 peptide (Homo sapiens, UniProt P68431)
Test: MST

Kd: 2900 nM
B1: BPTF-PHD PHD (protein)
chain: KLYCICKTPYDESKFYIGCDRCQNWYHGRCVGILQSEAELIDEYVCPQCQST
